Results taken from publication PMC10213783, “Crystal structures of glycoprotein D of equine alphaherpesviruses reveal potential binding sites to the entry receptor MHC-I” (Frontiers in Microbiology, 2023).

T1: Recombinant equine MHC-I 3.1 (Eqca-1*00101) with the peptide SDYVKVSNI linked to β2-microglobulin (equine (horse) | horse | )
T1 chain 1: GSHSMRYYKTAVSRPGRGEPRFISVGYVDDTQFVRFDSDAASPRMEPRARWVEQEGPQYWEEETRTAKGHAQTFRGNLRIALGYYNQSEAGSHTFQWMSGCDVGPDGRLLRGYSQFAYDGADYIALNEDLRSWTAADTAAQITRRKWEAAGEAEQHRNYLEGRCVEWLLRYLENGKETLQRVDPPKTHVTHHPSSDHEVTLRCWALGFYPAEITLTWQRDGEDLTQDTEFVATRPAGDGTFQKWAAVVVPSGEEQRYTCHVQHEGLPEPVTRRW
T1 chain 2: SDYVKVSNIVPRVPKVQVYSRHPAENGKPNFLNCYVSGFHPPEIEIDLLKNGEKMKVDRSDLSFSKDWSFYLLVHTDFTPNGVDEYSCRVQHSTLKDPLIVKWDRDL

B1: C-terminally truncated EHV-4 glycoprotein D, gD4_(36-280) (domain or fragment)
chain: VVRGNQNQRPEFPPPRYNFTIVTTYNETSLPSPFINDQVKIVDVRTVAATRPCEMIALIAKTNVDSIIKELDAAHKTYSARLTWFKITPTCATPIHDVVYMKCNPKLLFGMCDERSNILWLNSLITTAAETDDELGLVLASPAHSYSGLYRRVIQIDGRRIYTDFSVTIPSSHCPLSFEQNFGNPDRCKTPEQYSRGEVYTSRFLSEFNYRQGVHLAWVKHWFVQDGGNLPVQFYEAQAFARPVP
modifications: Insect-cell N-glycosylation; disulfides C87/C209, C126/C223, C138/C147. Entity position = paper number -30. / Peptide is covalently linked to beta2m. The linker sequence is not printed (supplement) …
B2: Recombinant soluble glycoprotein D of equine herpesvirus type 1, gD1_(32-349) (domain or fragment)
chain: EKAKRAVRGRQDRPKEFPPPRYNYTILTRYNATALASPFINDQVKNVDLRIVTATRPCEMIALIAKTNIDSILKELAAAQKTYSARLTWFKIMPTCATPIHDVSYMKCNPKLSFAMCDERSDILWQASLITMAAETDDELGLVLAAPAHSASGLYRRVIEIDGRRIYTDFSVTIPSERCPIAFEQNFGNPDRCKTPEQYSRGEVFTRRFLGEFNFPQGEHMTWLKFWFVYDGGNLPVQFYEAQAFARPVPPDNHPGFDSVESEITQNKTDPKPGQADPKPNQPFKWPSIKHLAPRLDEVDEVIEPVTKPPKTSKSNSTF
modifications: N-linked glycosylation (GlcNAc) visible at N53 and N61
B3: Recombinant soluble glycoprotein D of equine herpesvirus type 4, gD4_(32-349) (domain or fragment)
chain: ENYRRVVRGNQNQRPEFPPPRYNFTIVTTYNETSLPSPFINDQVKIVDVRTVAATRPCEMIALIAKTNVDSIIKELDAAHKTYSARLTWFKITPTCATPIHDVVYMKCNPKLLFGMCDERSNILWLNSLITTAAETDDELGLVLASPAHSYSGLYRRVIQIDGRRIYTDFSVTIPSSHCPLSFEQNFGNPDRCKTPEQYSRGEVYTSRFLSEFNYRQGVHLAWVKHWFVQDGGNLPVQFYEAQAFARPVPPDNHPGFDSVESEITQNKTNPKQEQASPKPNPPFKWPSIKQLAPRIDEVDNAKEITTKKPPASNSNSTF
modifications: Insect-cell N-glycosylation; disulfides C87/C209, C126/C223, C138/C147. Entity position = paper number -30. The deposited construct starts at E31 although the text prints 32-349; TEV-His6 removed. / …

Molecular target: T1, Recombinant equine MHC-I 3.1 …
Assay: SPR; recombinant equine MHC-I 3.1 amine-coupled to a polycarboxylate hydrogel chip HC200M; gDs injected in serial dilutions from 0 to about 10 uM, 15 min; 25°C; Biacore J; equilibrium response fitted to a 1:1 model; apparent constants
Settings: both partners purified

**Q.** With B1 as the binder, how does the Kd read?
**A.** 6.7 ± 0.75 µM

**Q.** How did the Kd turn out when B2 was run?
**A.** 7 µM

**Q.** B3 was tested. Which Kd did it give?
**A.** 5.8 ± 0.76 µM
